Test results taken from the supplement of paper PMC9112550, “Optimization of the antimicrobial peptide Bac7 by deep mutational scanning” (BMC Biology, 2022).

system: Escherichia coli TOP10; test: shrunken log2 fold change of peptide-encoding DNA abundance (4.5 h post-induction vs induction); higher = less antimicrobial activity (less host growth inhibition); conditions: time post-induction: 4.5 h; library: site-saturation at positions 5, 18, 19, 20
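Note: peptides expressed intracellularly from a pBAD plasmid library in pooled LB shake-flask culture, induced with 0.3% L-arabinose, DNA abundance read by NGS, three biological replicates, DESeq2 with apeglm shrinkage.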

Sequence	shrunken log2 fold change
RRIRIRPPRLPRPRPRPCPLPRP	-0.751
RRIRQRPPRLPRPRPRPWIIPRP	-0.329
RRIRIRPPRLPRPRPRPECVPRP	0.0147
RRIRKRPPRLPRPRPRPGECPRP	0.381
RRIRMRPPRLPRPRPRPDCMPRP	2.24
RRIRHRPPRLPRPRPRPLQEPRP	-0.331
RRIRQRPPRLPRPRPRPNQPPRP	-0.0757
RRIRSRPPRLPRPRPRPLPTPRP	0.446
RRIRIRPPRLPRPRPRPIGYPRP	-0.085
RRIRHRPPRLPRPRPRPYMCPRP	-0.536
RRIRGRPPRLPRPRPRPVKHPRP	0.168
RRIRTRPPRLPRPRPRPPGYPRP	0.0573
RRIRSRPPRLPRPRPRPVFFPRP	0.142
RRIRSRPPRLPRPRPRPLWQPRP	0.311
RRIRNRPPRLPRPRPRPAEWPRP	0.412
RRIRPRPPRLPRPRPRPESLPRP	-0.0197
RRIRGRPPRLPRPRPRPISMPRP	-0.0173
RRIRPRPPRLPRPRPRPCFCPRP	0.299
RRIRIRPPRLPRPRPRPEIKPRP	-0.14
RRIRHRPPRLPRPRPRPLCTPRP	-0.247
RRIRNRPPRLPRPRPRPGSRPRP	-0.0159
RRIRFRPPRLPRPRPRPPDIPRP	-0.329
RRIRFRPPRLPRPRPRPEAWPRP	0.00383
RRIRTRPPRLPRPRPRPVHCPRP	0.0307
RRIRGRPPRLPRPRPRPEFKPRP	0.741

Sequence	shrunken log2 fold change
RRIRYRPPRLPRPRPRPSHEPRP	-0.0704
RRIRERPPRLPRPRPRPSYTPRP	-0.181
RRIRIRPPRLPRPRPRPFTNPRP	-0.16
RRIRARPPRLPRPRPRPHDHPRP	-0.0299
RRIRDRPPRLPRPRPRPIQHPRP	-0.444
RRIRKRPPRLPRPRPRPTIHPRP	-0.087
RRIRRRPPRLPRPRPRPLTDPRP	0.223
RRIRWRPPRLPRPRPRPKHIPRP	-0.41
RRIRFRPPRLPRPRPRPWVAPRP	-0.139
RRIRNRPPRLPRPRPRPATFPRP	-0.441
RRIRERPPRLPRPRPRPYSAPRP	-0.269
RRIRFRPPRLPRPRPRPTQSPRP	0.691
RRIRARPPRLPRPRPRPIFEPRP	0.125
RRIRKRPPRLPRPRPRPNEHPRP	0.448
RRIRERPPRLPRPRPRPAFDPRP	0.107
RRIRHRPPRLPRPRPRPLGVPRP	-0.109
RRIRMRPPRLPRPRPRPEDSPRP	0.0648
RRIRARPPRLPRPRPRPGSRPRP	0.279
RRIRQRPPRLPRPRPRPQMNPRP	-0.72
RRIRWRPPRLPRPRPRPVRAPRP	0.636
RRIRVRPPRLPRPRPRPRVGPRP	0.655
RRIRPRPPRLPRPRPRPNIRPRP	-0.743
RRIRSRPPRLPRPRPRPCHWPRP	-0.0782
RRIRERPPRLPRPRPRPGRIPRP	-0.0858
RRIRCRPPRLPRPRPRPYRWPRP	-0.141

Sequence	shrunken log2 fold change
RRIRDRPPRLPRPRPRPKPSPRP	0.503
RRIRQRPPRLPRPRPRPFHAPRP	-0.117
RRIRGRPPRLPRPRPRPDNRPRP	-0.0893
RRIRGRPPRLPRPRPRPPCPPRP	0.86
RRIRDRPPRLPRPRPRPDLNPRP	-0.041
RRIRHRPPRLPRPRPRPYKIPRP	-0.373
RRIRPRPPRLPRPRPRPLLCPRP	0.127
RRIRMRPPRLPRPRPRPNYLPRP	-0.212
RRIRMRPPRLPRPRPRPLYTPRP	-0.116
RRIRFRPPRLPRPRPRPYLRPRP	-0.138
RRIRNRPPRLPRPRPRPYQAPRP	0.036
RRIRPRPPRLPRPRPRPDLWPRP	0.344
RRIRGRPPRLPRPRPRPDTDPRP	1.01
RRIRWRPPRLPRPRPRPEMFPRP	0.274
RRIRQRPPRLPRPRPRPRYVPRP	-0.215
RRIRRRPPRLPRPRPRPWYWPRP	-0.039
RRIRSRPPRLPRPRPRPLEPPRP	-0.132
RRIRFRPPRLPRPRPRPQDVPRP	-0.193
RRIRFRPPRLPRPRPRPGPHPRP	0.305
RRIRMRPPRLPRPRPRPSKQPRP	0.495
RRIRNRPPRLPRPRPRPATLPRP	-0.365
RRIRPRPPRLPRPRPRPFPVPRP	0.00381
RRIRWRPPRLPRPRPRPYAMPRP	0.0576
RRIRRRPPRLPRPRPRPCDAPRP	0.221
RRIRPRPPRLPRPRPRPPVEPRP	0.0793

Sequence	shrunken log2 fold change
RRIRHRPPRLPRPRPRPRMYPRP	-0.194
RRIRRRPPRLPRPRPRPYFPPRP	0.31
RRIRLRPPRLPRPRPRPHIRPRP	-0.108
RRIRWRPPRLPRPRPRPYQPPRP	-0.0963
RRIRQRPPRLPRPRPRPDCDPRP	-0.0763
RRIRLRPPRLPRPRPRPRLLPRP	0.167
RRIRLRPPRLPRPRPRPPVLPRP	0.0296
RRIRDRPPRLPRPRPRPQDCPRP	-0.00195
RRIRGRPPRLPRPRPRPMDGPRP	-0.0481
RRIRNRPPRLPRPRPRPLLRPRP	-0.267
RRIRGRPPRLPRPRPRPDPPPRP	1.14
RRIRHRPPRLPRPRPRPLIFPRP	-0.38
RRIRGRPPRLPRPRPRPRVTPRP	0.744
RRIRKRPPRLPRPRPRPHVEPRP	-0.0479
RRIRYRPPRLPRPRPRPKRHPRP	-0.159
RRIRCRPPRLPRPRPRPHLLPRP	-0.375
RRIRQRPPRLPRPRPRPWSLPRP	-0.0828
RRIRGRPPRLPRPRPRPEKLPRP	0.844
RRIRARPPRLPRPRPRPQRPPRP	0.517
RRIRARPPRLPRPRPRPCAAPRP	0.893
RRIRCRPPRLPRPRPRPHHVPRP	0.0159
RRIRTRPPRLPRPRPRPKHGPRP	-0.0288
RRIRCRPPRLPRPRPRPHDMPRP	-0.234
RRIRFRPPRLPRPRPRPGYIPRP	-0.0716
RRIRLRPPRLPRPRPRPISLPRP	-0.36

Sequence	shrunken log2 fold change
RRIRIRPPRLPRPRPRPRTRPRP	0.0709
RRIRERPPRLPRPRPRPDKEPRP	-0.0205
RRIRPRPPRLPRPRPRPAVYPRP	-0.0879
RRIRWRPPRLPRPRPRPCLSPRP	-0.15
RRIRPRPPRLPRPRPRPAMFPRP	0.0516
RRIRERPPRLPRPRPRPVYPPRP	-0.335
RRIRDRPPRLPRPRPRPKHNPRP	-0.0986
RRIRPRPPRLPRPRPRPWWHPRP	0.0413
RRIRGRPPRLPRPRPRPKCTPRP	0.978
RRIRWRPPRLPRPRPRPSSTPRP	0.0549
RRIRWRPPRLPRPRPRPKLGPRP	0.0872
RRIRNRPPRLPRPRPRPNWKPRP	-0.0062
RRIRQRPPRLPRPRPRPCAQPRP	0.308
RRIRTRPPRLPRPRPRPLFFPRP	-0.263
RRIRNRPPRLPRPRPRPFWFPRP	0.195
RRIRFRPPRLPRPRPRPTMCPRP	-0.274
RRIRGRPPRLPRPRPRPWIHPRP	0.0779
RRIRCRPPRLPRPRPRPMGLPRP	-0.0216
RRIRPRPPRLPRPRPRPYESPRP	-0.186
RRIRCRPPRLPRPRPRPPCNPRP	-0.355
RRIRWRPPRLPRPRPRPMIAPRP	0.00921
RRIRDRPPRLPRPRPRPQFGPRP	-0.36
RRIRDRPPRLPRPRPRPTTNPRP	0.411
RRIRGRPPRLPRPRPRPYVWPRP	0.131
RRIRCRPPRLPRPRPRPPVKPRP	-0.00107

Sequence	shrunken log2 fold change
RRIRWRPPRLPRPRPRPHCKPRP	-0.233
RRIRCRPPRLPRPRPRPVNQPRP	-0.174
RRIRYRPPRLPRPRPRPNCTPRP	-0.126
RRIRIRPPRLPRPRPRPPAMPRP	1.68
RRIRMRPPRLPRPRPRPFYRPRP	-0.0105
RRIRGRPPRLPRPRPRPPGTPRP	0.982
RRIRMRPPRLPRPRPRPIEKPRP	-0.00199
RRIRGRPPRLPRPRPRPSLWPRP	0.611
RRIRLRPPRLPRPRPRPYSMPRP	-0.924
RRIRKRPPRLPRPRPRPHHSPRP	-0.298
RRIRRRPPRLPRPRPRPDENPRP	0.118
RRIRSRPPRLPRPRPRPSKMPRP	-0.0555
RRIRDRPPRLPRPRPRPRDCPRP	0.0952
RRIRVRPPRLPRPRPRPCQDPRP	-0.336
RRIRHRPPRLPRPRPRPSRDPRP	0.234
RRIRIRPPRLPRPRPRPRSWPRP	0.394
RRIRCRPPRLPRPRPRPLTCPRP	-0.184
RRIRNRPPRLPRPRPRPPNVPRP	-0.0463
RRIRDRPPRLPRPRPRPEWSPRP	0.364
RRIRDRPPRLPRPRPRPPMDPRP	0.28
RRIRKRPPRLPRPRPRPRIHPRP	-0.0869
RRIRYRPPRLPRPRPRPHNYPRP	-0.365
RRIRFRPPRLPRPRPRPWQFPRP	-0.333
RRIRFRPPRLPRPRPRPSQEPRP	-0.286
RRIRLRPPRLPRPRPRPENFPRP	0.0173
